Assays:
HLA-A*23:01 = test: IEDB peptide-MHC binding, purified MHC/direct/fluorescence; filed as Kd, often an IC50 or EC50 that approximates it; ≥ and ≤ were set here for values at or beyond the usual limits of such assays; details: source organism: Dengue virus 1 Singapore/S275/1990
HLA-A*24:02 [1] = test: as above
HLA-C*06:02 = test: as above
HLA-B*15:01 [2] = test: IEDB peptide-MHC binding, purified MHC/competitive/fluorescence; filed as Kd, often an IC50 or EC50 that approximates it; ≥ and ≤ were set here for values at or beyond the usual limits of such assays; details: source organism: Bacillus cereus G9241
HLA-B*35:01 = test: as above; details: source organism: Bacillus cereus G9241
HLA-A*01:01 = test: IEDB peptide-MHC binding, purified MHC/direct/fluorescence; filed as Kd, often an IC50 or EC50 that approximates it; ≥ and ≤ were set here for values at or beyond the usual limits of such assays
HLA-A*02:01 [3] = test: as above
HLA-A*02:11 = test: as above
HLA-A*02:12 [4] = test: as above
HLA-A*03:01 = test: as above
HLA-A*11:01 = test: as above
HLA-A*31:01 = test: as above
HLA-A*68:02 = test: as above
HLA-A*69:01 = test: as above
HLA-B*07:02 = test: as above
HLA-B*08:01 = test: as above
HLA-B*15:01 [5] = test: as above
HLA-B*18:01 = test: as above
HLA-B*27:05 = test: as above
HLA-B*40:01 = test: as above
HLA-B*44:02 = test: as above
HLA-B*46:01 [6] = test: as above
HLA-B*48:01 = test: as above; details: source organism: Orthohantavirus hantanense
HLA-B*57:01 = test: as above
HLA-B*58:01 = test: as above
HLA-A*26:01 = test: IEDB peptide-MHC binding, purified MHC/competitive/fluorescence; filed as Kd, often an IC50 or EC50 that approximates it; ≥ and ≤ were set here for values at or beyond the usual limits of such assays
HLA-B*15:17 = test: as above
HLA-B*27:03 = test: as above
HLA-B*39:01 [7] = test: as above; details: source organism: Hantaan virus 76-118
HLA-B*51:01 = test: as above
HLA-A*02:19 = test: as above; details: source organism: Bacillus licheniformis
HLA-A*02:01 [8] = test: IEDB peptide-MHC binding, purified MHC/competitive/fluorescence; ≥ and ≤ were set here for values at or beyond the usual limits of such assays; details: source organism: Zaire ebolavirus
HLA-A*24:02 [9] = test: as above; details: source organism: Zaire ebolavirus
HLA-A*24:03 = test: IEDB peptide-MHC binding, purified MHC/direct/fluorescence; filed as Kd, often an IC50 or EC50 that approximates it; ≥ and ≤ were set here for values at or beyond the usual limits of such assays; details: source organism: Zaire ebolavirus
HLA-A*29:02 = test: as above; details: source organism: Zaire ebolavirus
HLA-B*39:01 [10] = test: as above; details: source organism: Zaire ebolavirus
HLA-C*05:01 = test: as above; details: source organism: Giardia intestinalis
HLA-C*12:03 = test: as above
HLA-B*46:01 [11] = test: IEDB peptide-MHC binding, purified MHC/competitive/fluorescence; filed as Kd, often an IC50 or EC50 that approximates it; ≥ and ≤ were set here for values at or beyond the usual limits of such assays; details: source organism: Influenza A virus (A/swine/Italy/1521/98(H1N2))
HLA-A*02:01 [12] = test: as above; details: source organism: Vibrio cholerae
HLA-A*02:12 [13] = test: as above; details: source organism: Vibrio cholerae
[14] = source organism: Mycobacterium tuberculosis variant bovis BCG str. Pasteur 1173P2
[15] = source organism: Orthohantavirus hantanense
[16] = source organism: Limestone Canyon virus
[17] = source organism: Hantaan virus 76-118
[18] = source organism: Bacillus licheniformis
[19] = source organism: Zaire ebolavirus
[20] = source organism: Giardia lamblia ATCC 50803
[21] = source organism: Influenza A virus (A/duck/Mongolia/47/2001(H7N1))
[22] = source organism: Influenza A virus (A/Puerto Rico/8/34/Mount Sinai(H1N1))

GFMNEDHWF
Kd (HLA-A*23:01): 0.046 µM | Kd (HLA-A*24:02 [1]; source organism: Dengue virus 1 Singapore/S275/1990): 0.09 µM

YTWNGTQWV
Kd (HLA-C*06:02; [14]): 0.343 µM

FVHDSVQYF
Kd (HLA-C*06:02; source organism: Bacillus cereus G9241): 0.133 µM | Kd (HLA-B*15:01 [2]): 0.0289 µM | Kd (HLA-B*35:01): 0.0009 µM

IRKPKHLYV
Kd (HLA-A*01:01; [15]): ≥ 20 µM | Kd (HLA-A*02:01 [3]; [15]): ≥ 20 µM | Kd (HLA-A*02:11; [16]): ≥ 20 µM | Kd (HLA-A*02:12 [4]; [16]): ≥ 20 µM | Kd (HLA-A*03:01; [15]): ≥ 20 µM | Kd (HLA-A*11:01; [15]): ≥ 20 µM | Kd (HLA-A*31:01; [15]): ≥ 20 µM | Kd (HLA-A*68:02; [16]): ≥ 20 µM | Kd (HLA-A*69:01; [15]): ≥ 20 µM | Kd (HLA-B*07:02; [15]): ≥ 20 µM | Kd (HLA-B*08:01; source organism: Hantavirus CRF367): 14 µM | Kd (HLA-B*15:01 [5]; [15]): ≥ 20 µM | Kd (HLA-B*18:01; [15]): ≥ 20 µM | Kd (HLA-B*27:05; [15]): ≥ 20 µM | Kd (HLA-B*40:01; [15]): ≥ 20 µM | Kd (HLA-B*44:02; [15]): ≥ 20 µM | Kd (HLA-B*46:01 [6]; [15]): ≥ 20 µM | Kd (HLA-B*48:01): ≥ 20 µM | Kd (HLA-B*57:01; [15]): ≥ 20 µM | Kd (HLA-B*58:01; [15]): ≥ 20 µM | Kd (HLA-C*06:02; [17]): 0.031 µM | Kd (HLA-A*26:01; [17]): ≥ 20 µM | Kd (HLA-B*15:17; [17]): ≥ 20 µM | Kd (HLA-B*27:03; [17]): ≥ 20 µM | Kd (HLA-B*39:01 [7]): ≥ 20 µM | Kd (HLA-B*51:01; [17]): ≥ 20 µM

RLIWSHHHI
Kd (HLA-A*02:01 [3]; [18]): 1.21 µM | Kd (HLA-A*31:01; [18]): 0.462 µM | Kd (HLA-A*69:01; [18]): 1.26 µM | Kd (HLA-B*07:02; [18]): 12 µM | Kd (HLA-B*15:01 [5]; [18]): 0.296 µM | Kd (HLA-B*58:01; [18]): 0.0247 µM | Kd (HLA-A*02:19): 0.0879 µM

GHMMVIFRL
IC50 (HLA-A*02:01 [8]): 0.205 µM | IC50 (HLA-A*24:02 [9]): 0.19 µM | Kd (HLA-A*01:01; [19]): ≥ 20 µM | Kd (HLA-A*02:01 [3]; [19]): ≥ 20 µM | Kd (HLA-A*02:11; [19]): ≥ 20 µM | Kd (HLA-A*02:12 [4]; [19]): ≥ 20 µM | Kd (HLA-A*03:01; [19]): ≥ 20 µM | Kd (HLA-A*24:03): ≥ 20 µM | Kd (HLA-A*29:02): ≥ 20 µM | Kd (HLA-A*31:01; [19]): ≥ 20 µM | Kd (HLA-A*68:02; [19]): ≥ 20 µM | Kd (HLA-A*69:01; [19]): ≥ 20 µM | Kd (HLA-B*07:02; [19]): ≥ 20 µM | Kd (HLA-B*15:01 [5]; [19]): ≥ 20 µM | Kd (HLA-B*18:01; [19]): ≥ 20 µM | Kd (HLA-B*27:05; [19]): ≥ 20 µM | Kd (HLA-B*39:01 [10]): 0.0867 µM | Kd (HLA-B*40:01; [19]): ≥ 20 µM | Kd (HLA-B*44:02; [19]): ≥ 20 µM | Kd (HLA-B*46:01 [6]; [19]): ≥ 20 µM | Kd (HLA-B*57:01; [19]): ≥ 20 µM | Kd (HLA-B*58:01; [19]): ≥ 20 µM | Kd (HLA-A*26:01; [19]): ≥ 20 µM | Kd (HLA-B*15:17; [19]): ≥ 20 µM | Kd (HLA-B*27:03; [19]): ≥ 20 µM | Kd (HLA-B*51:01; [19]): ≥ 20 µM

WSDLNTTDF
Kd (HLA-A*01:01; [20]): 0.156 µM | Kd (HLA-A*02:01 [3]; [20]): ≥ 20 µM | Kd (HLA-A*03:01; [20]): ≥ 20 µM | Kd (HLA-A*11:01; [20]): ≥ 20 µM | Kd (HLA-A*24:02 [1]; [20]): ≥ 20 µM | Kd (HLA-A*31:01; [20]): ≥ 20 µM | Kd (HLA-B*07:02; [20]): ≥ 20 µM | Kd (HLA-B*15:01 [5]; [20]): ≥ 20 µM | Kd (HLA-B*27:05; [20]): ≥ 20 µM | Kd (HLA-B*40:01; [20]): ≥ 20 µM | Kd (HLA-B*44:02; [20]): ≥ 20 µM | Kd (HLA-B*46:01 [6]; [20]): ≥ 20 µM | Kd (HLA-B*58:01; [20]): ≥ 20 µM | Kd (HLA-C*05:01): ≤ 0.001 µM

YAKFARITL
Kd (HLA-C*12:03; [14]): ≤ 0.001 µM

FLKDVMESM
Kd (HLA-A*01:01; [21]): ≥ 20 µM | Kd (HLA-A*02:11; source organism: Influenza A virus H3N2): ≤ 0.001 µM | Kd (HLA-A*03:01; [21]): ≥ 20 µM | Kd (HLA-A*11:01; [21]): ≥ 20 µM | Kd (HLA-A*24:02 [1]; [21]): ≥ 20 µM | Kd (HLA-B*07:02; [22]): 0.312 µM | Kd (HLA-B*08:01; [22]): 0.158 µM | Kd (HLA-B*15:01 [5]; [22]): 0.22 µM | Kd (HLA-B*18:01; [21]): ≥ 20 µM | Kd (HLA-B*27:05; [21]): ≥ 20 µM | Kd (HLA-B*40:01; [21]): ≥ 20 µM | Kd (HLA-B*44:02; [21]): ≥ 20 µM | Kd (HLA-B*58:01; [21]): ≥ 20 µM | Kd (HLA-C*12:03; source organism: Influenza A virus (A/swine/Italy/1521/98(H1N2))): ≤ 0.001 µM | Kd (HLA-B*46:01 [11]): 0.0239 µM

NLNFDQAAL
Kd (HLA-A*02:01 [12]): 0.0967 µM | Kd (HLA-A*02:12 [13]): 0.0828 µM

Source: the Immune Epitope Database (IEDB)
